Earlier results on one substance are cited in paper PMC8359934.

The target in this data set is sNUCB1 (Homo sapiens) (UniProt Q02818). Nature of the data set: SEC-MALS.

As to sNUCB1 (from UniProt Q02818), the Kd is 260 nM.
